Publication PMC10050189, “Alpha 2-macroglobulin acts as a clearance factor in the lysosomal degradation of extracellular misfolded proteins” (Scientific Reports, 2023)

B1: His–ALFA–3C–ALDH1A1 (natural protein, human, UniProt P00352 1-501, looked up)
chain: MSSSGTPDLPVLLTDLKIQYTKIFINNEWHDSVSGKKFPVFNPATEEELCQVEEGDKEDVDKAVKAARQAFQIGSPWRTMDASERGRLLYKLADLIERDRLLLATMESMNGGKLYSNAYLNDLAGCIKTLRYCAGWADKIQGRTIPIDGNFFTYTRHEPIGVCGQIIPWNFPLVMLIWKIGPALSCGNTVVVKPAEQTPLTALHVASLIKEAGFPPGVVNIVPGYGPTAGAAISSHMDIDKVAFTGSTEVGKLIKEAAGKSNLKRVTLELGGKSPCIVLADADLDNAVEFAHHGVFYHQGQCCIAASRIFVEESIYDEFVRRSVERAKKYILGNPLTPGVTQGPQIDKEQYDKILDLIESGKKEGAKLECGGGPWGNKGYFVQPTVFSNVTDEMRIAKEEIFGPVQQIMKFKSLDDVIKRANNTFYGLSAGVFTKDIDKAITISSALQAGTVWVNCYGVVSAQCPFGGFKMSGNGRELGEYGFHEYTEVKTVTVKISQKNS
notes: retinal dehydrogenase 1 (ALDH1A1), cDNA amplified from HEK293 total cDNA; A 3C protease site stands between the tags and the protein; Heat-stressed at 50 °C for 1 h together with the chaperone; also called recombinant ALDH1A1; source: E. coli BL21(DE3) LOBSTR, purified (HisPur Cobalt Resin)
B2: His–ALFA–3C–ESD (natural protein, human, UniProt P10768 1-282, looked up)
chain: MALKQISSNKCFGGLQKVFEHDSVELNCKMKFAVYLPPKAETGKCPALYWLSGLTCTEQNFISKSGYHQSASEHGLVVIAPDTSPRGCNIKGEDESWDFGTGAGFYVDATEDPWKTNYRMYSYVTEELPQLINANFPVDPQRMSIFGHSMGGHGALICALKNPGKYKSVSAFAPICNPVLCPWGKKAFSGYLGTDQSKWKAYDATHLVKSYPGSQLDILIDQGKDDQFLLDGQLLPDNFIAACTEKKIPVVFRLQEGYDHSYYFIATFITDHIRHHAKYLNA
notes: S-formylglutathione hydrolase (ESD), cDNA amplified from HEK293 total cDNA; A 3C protease site stands between the tags and the protein; Heat-stressed at 50 °C for 1 h together with the chaperone; also called recombinant ESD; source: E. coli BL21(DE3) LOBSTR, purified (HisPur Cobalt Resin)
B3: α2M–mCherry–sfGFP–His (natural protein, human (cDNA from HepG2), UniProt P01023 24-1474, looked up)
chain: SVSGKPQYMVLVPSLLHTETTEKGCVLLSYLNETVTVSASLESVRGNRSLFTDLEAENDVLHCVAFAVPKSSSNEEVMFLTVQVKGPTQEFKKRTTVMVKNEDSLVFVQTDKSIYKPGQTVKFRVVSMDENFHPLNELIPLVYIQDPKGNRIAQWQSFQLEGGLKQFSFPLSSEPFQGSYKVVVQKKSGGRTEHPFTVEEFVLPKFEVQVTVPKIITILEEEMNVSVCGLYTYGKPVPGHVTVSICRKYSDASDCHGEDSQAFCEKFSGQLNSHGCFYQQVKTKVFQLKRKEYEMKLHTEAQIQEEGTVVELTGRQSSEITRTITKLSFVKVDSHFRQGIPFFGQVRLVDGKGVPIPNKVIFIRGNEANYYSNATTDEHGLVQFSINTTNVMGTSLTVRVNYKDRSPCYGYQWVSEEHEEAHHTAYLVFSPSKSFVHLEPMSHELPCGHTQTVQAHYILNGGTLLGLKKLSFYYLIMAKGGIVRTGTHGLLVKQEDMKGHFSISIPVKSDIAPVARLLIYAVLPTGDVIGDSAKYDVENCLANKVDLSFSPSQSLPASHAHLRVTAAPQSVCALRAVDQSVLLMKPDAELSASSVYNLLPEKDLTGFPGPLNDQDNEDCINRHNVYINGITYTPVSSTNEKDMYSFLEDMGLKAFTNSKIRKPKMCPQLQQYEMHGPEGLRVGFYESDVMGRGHARLVHVEEPHTETVRKYFPETWIWDLVVVNSAGVAEVGVTVPDTITEWKAGAFCLSEDAGLGISSTASLRAFQPFFVELTMPYSVIRGEAFTLKATVLNYLPKCIRVSVQLEASPAFLAVPVEKEQAPHCICANGRQTVSWAVTPKSLGNVNFTVSAEALESQELCGTEVPSVPEHGRKDTVIKPLLVEPEGLEKETTFNSLLCPSGGEVSEELSLKLPPNVVEESARASVSVLGDILGSAMQNTQNLLQMPYGCGEQNMVLFAPNIYVLDYLNETQQLTPEIKSKAIGYLNTGYQRQLNYKHYDGSYSTFGERYGRNQGNTWLTAFVLKTFAQARAYIFIDEAHITQALIWLSQRQKDNGCFRSSGSLLNNAIKGGVEDEVTLSAYITIALLEIPLTVTHPVVRNALFCLESAWKTAQEGDHGSHVYTKALLAYAFALAGNQDKRKEVLKSLNEEAVKKDNSVHWERPQKPKAPVGHFYEPQAPSAEVEMTSYVLLAYLTAQPAPTSEDLTSATNIVKWITKQQNAQGGFSSTQDTVVALHALSKYGAATFTRTGKAAQVTIQSSGTFSSKFQVDNNNRLLLQQVSLPELPGEYSMKVTGEGCVYLQTSLKYNILPEKEEFPFALGVQTLPQTCDEPKAHTSFQISLSVSYTGSRSASNMAIVDVKMVSGFIPLKPTVKMLERSNHVSRTEVSSNHVLIYLDKVSNQTLSLFFTVLQDVPVRDLKPAIVKVYDYYETDEFAIAEYNAPCSKDLGNA
notes: alpha 2-macroglobulin (α2M), cDNA amplified from HepG2 total cDNA; Tetramer with an intact thiol ester by native-PAGE and heat fragmentation; also called α2M–RG; α2M–RFP–GFP–His; source: purified from conditioned medium (Ni–NTA); not shown: mCherry, C-terminal, kept; sfGFP, C-terminal, kept

Columns and labels:
α2M–mCherry–sfGFP–His = biological target: B3; test: co-IP; purified α2M–RG (0.1 μM) mixed with purified substrate, pre-incubated at 50 °C (heat stress) or 4 °C for 1 h; anti-GFP (GFP-nanobody) sepharose 2 h at 4 °C, washed four times with PBS; conditions: both partners purified
[1] = biological target: the molecule itself; test: native gel or EMSA; Native-PAGE of purified α2M–RG on NuPAGE 3 to 8% Tris–acetate gels, Tris–glycine running buffer pH 8.3, with or without methylamine; migrated to ~920 kDa

B1
binding result (α2M–mCherry–sfGFP–His): binds

B2
binding result (α2M–mCherry–sfGFP–His): binds

B3
stoichiometry N [1]: 4
